We go through two molecules from PMC11783756, “Sorbitol induces flavonoid accumulation as a secondary signal via the nanoencapsulated SPc/lncRNA809-MmNAC17 module against Alternaria alternata in Malus micromalus”.

The series has as its target T1, MmNAC17 (Malus micromalus, UniProt D9ZJ94 1-336).
T1 sequence: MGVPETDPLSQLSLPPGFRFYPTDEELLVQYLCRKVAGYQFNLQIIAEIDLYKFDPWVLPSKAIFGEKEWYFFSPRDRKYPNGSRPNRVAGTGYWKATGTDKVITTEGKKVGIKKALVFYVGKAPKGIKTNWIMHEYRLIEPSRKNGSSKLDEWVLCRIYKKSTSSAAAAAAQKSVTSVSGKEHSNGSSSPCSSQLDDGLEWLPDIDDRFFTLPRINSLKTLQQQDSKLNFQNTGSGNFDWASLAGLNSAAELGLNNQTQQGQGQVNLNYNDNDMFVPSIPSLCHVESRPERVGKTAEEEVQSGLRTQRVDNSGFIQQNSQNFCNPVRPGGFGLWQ
The series can be described thus: EMSA; binding disrupted by unlabeled competitor (100x); Chemiluminescence EMSA kit (Beyotime); binding buffer, salt, pH and temperature not stated. The settings on record: protein: recombinant; tags: His (pET-30a, Ni-NTA purified); chain copies: 2; blunt. Background: Mobility shift assays separate free from complexed probe on a gel.

B1: proMmLAR probe (dsDNA)
DNA 1: GAAGATATCACACGTAGCCAAAAGCG
DNA 2: CGCTTTTGGCTACGTGTGATATCTTC
On to B1, for which the binding result was “binds”.

B2: proMmF3H probe (dsDNA)
DNA 1: AGGTGAAGATCACGTGGCGCAATTTC
DNA 2: GAAATTGCGCCACGTGATCTTCACCT
Turning to B2, the binding result was “binds”.
